Measured values reported in PMC4303232.

Target: FADD (UniProt Q13158)
Experiment: anti-flag immunoprecipitation, immunoblot
Conditions: reference: wild type; sites S116

- binding against the reference: weaker
Substance: PEA15 (from UniProt Q15121) S116A
